The supplement of paper PMC9112550, “Optimization of the antimicrobial peptide Bac7 by deep mutational scanning” (BMC Biology, 2022)

Tested on: Escherichia coli TOP10
Assay: shrunken log2 fold change of peptide-encoding DNA abundance (4.5 h post-induction vs induction); higher = less antimicrobial activity (less host growth inhibition)
Conditions: time post-induction: 4.5 h; library: site-saturation at positions 5, 18, 19, 20
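Also: peptides expressed intracellularly from a pBAD plasmid library in pooled LB shake-flask culture, induced with 0.3% L-arabinose, DNA abundance read by NGS, three biological replicates, DESeq2 with apeglm shrinkage.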

| Sequence | shrunken log2 fold change |
| --- | --- |
| RRIRYRPPRLPRPRPRPWCHPRP | -0.191 |
| RRIRDRPPRLPRPRPRPKPFPRP | 0.013 |
| RRIRRRPPRLPRPRPRPNKEPRP | -0.0865 |
| RRIRYRPPRLPRPRPRPMHMPRP | -0.113 |
| RRIRNRPPRLPRPRPRPGTRPRP | 0.00131 |
| RRIRERPPRLPRPRPRPHHQPRP | -0.318 |
| RRIRIRPPRLPRPRPRPHFFPRP | -0.237 |
| RRIRTRPPRLPRPRPRPSMIPRP | -0.527 |
| RRIRDRPPRLPRPRPRPTFWPRP | 0.588 |
| RRIRARPPRLPRPRPRPKVFPRP | 0.193 |
| RRIRPRPPRLPRPRPRPDPRPRP | 0.649 |
| RRIRKRPPRLPRPRPRPGTTPRP | 0.157 |
| RRIRERPPRLPRPRPRPLYYPRP | -0.694 |
| RRIRARPPRLPRPRPRPTHEPRP | 0.622 |
| RRIRKRPPRLPRPRPRPNWNPRP | -0.191 |
| RRIRWRPPRLPRPRPRPLVRPRP | 0.151 |
| RRIRVRPPRLPRPRPRPFYFPRP | -0.493 |
| RRIRKRPPRLPRPRPRPDLVPRP | 0.662 |
| RRIRMRPPRLPRPRPRPTCEPRP | 0.745 |
| RRIRRRPPRLPRPRPRPTENPRP | 0.464 |
| RRIRQRPPRLPRPRPRPVNNPRP | -0.0612 |
| RRIRARPPRLPRPRPRPSRQPRP | 0.373 |
| RRIRSRPPRLPRPRPRPVAGPRP | 0.0927 |
| RRIRQRPPRLPRPRPRPFTGPRP | -0.0255 |
| RRIRVRPPRLPRPRPRPTILPRP | -0.308 |

| Sequence | shrunken log2 fold change |
| --- | --- |
| RRIRARPPRLPRPRPRPVERPRP | 0.732 |
| RRIRCRPPRLPRPRPRPGDVPRP | -0.319 |
| RRIRRRPPRLPRPRPRPVVAPRP | 0.43 |
| RRIRERPPRLPRPRPRPWDIPRP | -0.0155 |
| RRIRPRPPRLPRPRPRPSFYPRP | -0.303 |
| RRIRGRPPRLPRPRPRPAYRPRP | 0.181 |
| RRIRCRPPRLPRPRPRPLAFPRP | -0.165 |
| RRIRMRPPRLPRPRPRPNRTPRP | 0.13 |
| RRIRYRPPRLPRPRPRPKSKPRP | -0.428 |
| RRIRQRPPRLPRPRPRPTGVPRP | 0.216 |
| RRIRYRPPRLPRPRPRPISLPRP | -0.333 |
| RRIRPRPPRLPRPRPRPNWCPRP | 0.0235 |
| RRIRCRPPRLPRPRPRPFEDPRP | -0.019 |
| RRIRERPPRLPRPRPRPHYNPRP | -1.12 |
| RRIRHRPPRLPRPRPRPTHTPRP | -0.00887 |
| RRIRFRPPRLPRPRPRPQITPRP | -0.481 |
| RRIRFRPPRLPRPRPRPWHIPRP | -0.213 |
| RRIRTRPPRLPRPRPRPGCTPRP | -0.0907 |
| RRIRYRPPRLPRPRPRPCNKPRP | -0.0167 |
| RRIRRRPPRLPRPRPRPKMGPRP | -0.0227 |
| RRIRIRPPRLPRPRPRPRYFPRP | -0.769 |
| RRIRDRPPRLPRPRPRPKCEPRP | -0.351 |
| RRIRMRPPRLPRPRPRPQFEPRP | 0.046 |
| RRIRNRPPRLPRPRPRPPIRPRP | 0.0511 |
| RRIRHRPPRLPRPRPRPQMAPRP | -0.191 |

| Sequence | shrunken log2 fold change |
| --- | --- |
| RRIRPRPPRLPRPRPRPIGLPRP | 0.155 |
| RRIRHRPPRLPRPRPRPMFAPRP | -0.245 |
| RRIRNRPPRLPRPRPRPAFHPRP | -0.436 |
| RRIRYRPPRLPRPRPRPNPSPRP | -0.0272 |
| RRIRNRPPRLPRPRPRPHLDPRP | 0.118 |
| RRIRTRPPRLPRPRPRPKQCPRP | -0.00809 |
| RRIRPRPPRLPRPRPRPMPQPRP | -0.0158 |
| RRIRVRPPRLPRPRPRPFFCPRP | -0.00678 |
| RRIRDRPPRLPRPRPRPQDHPRP | 0.0862 |
| RRIRMRPPRLPRPRPRPLPDPRP | 2.49 |
| RRIRVRPPRLPRPRPRPWKYPRP | -0.0321 |
| RRIRDRPPRLPRPRPRPPFKPRP | 0.18 |
| RRIRYRPPRLPRPRPRPVWDPRP | -0.0448 |
| RRIRIRPPRLPRPRPRPMTEPRP | 0.0149 |
| RRIRMRPPRLPRPRPRPDWHPRP | -0.136 |
| RRIRNRPPRLPRPRPRPVTDPRP | -0.013 |
| RRIRTRPPRLPRPRPRPLLRPRP | 0.0975 |
| RRIRMRPPRLPRPRPRPEGWPRP | 3.15 |
| RRIRGRPPRLPRPRPRPARFPRP | 0.683 |
| RRIRTRPPRLPRPRPRPEAGPRP | 0.286 |
| RRIRCRPPRLPRPRPRPYITPRP | -1.44 |
| RRIRCRPPRLPRPRPRPMVFPRP | -0.0164 |
| RRIRGRPPRLPRPRPRPEAHPRP | 0.079 |
| RRIRYRPPRLPRPRPRPCFGPRP | -0.0967 |
| RRIRVRPPRLPRPRPRPMSWPRP | 0.0132 |

| Sequence | shrunken log2 fold change |
| --- | --- |
| RRIRKRPPRLPRPRPRPYMVPRP | -0.211 |
| RRIRPRPPRLPRPRPRPPNCPRP | 0.215 |
| RRIRVRPPRLPRPRPRPQGDPRP | -0.0558 |
| RRIRTRPPRLPRPRPRPYMPPRP | -1.27 |
| RRIRPRPPRLPRPRPRPYHEPRP | -0.348 |
| RRIRMRPPRLPRPRPRPLIRPRP | -0.373 |
| RRIRQRPPRLPRPRPRPPYYPRP | -0.829 |
| RRIRLRPPRLPRPRPRPKECPRP | -0.0179 |
| RRIRWRPPRLPRPRPRPMVSPRP | -0.0339 |
| RRIRRRPPRLPRPRPRPCYQPRP | -0.16 |
| RRIRTRPPRLPRPRPRPEQSPRP | 0.0803 |
| RRIRSRPPRLPRPRPRPQAKPRP | 0.0225 |
| RRIRMRPPRLPRPRPRPKSVPRP | 0.0926 |
| RRIRYRPPRLPRPRPRPASGPRP | -0.148 |
| RRIRDRPPRLPRPRPRPLWHPRP | 0.0123 |
| RRIRCRPPRLPRPRPRPDKWPRP | 0.184 |
| RRIRKRPPRLPRPRPRPSRAPRP | 0.521 |
| RRIRIRPPRLPRPRPRPKTDPRP | -0.292 |
| RRIRARPPRLPRPRPRPALIPRP | 0.379 |
| RRIRIRPPRLPRPRPRPMHYPRP | -0.434 |
| RRIRRRPPRLPRPRPRPRSFPRP | 0.401 |
| RRIRLRPPRLPRPRPRPKISPRP | -0.0626 |
| RRIRQRPPRLPRPRPRPIKVPRP | 0.0441 |
| RRIRSRPPRLPRPRPRPHKLPRP | -0.228 |
| RRIRARPPRLPRPRPRPPPGPRP | 1.16 |

| Sequence | shrunken log2 fold change |
| --- | --- |
| RRIRHRPPRLPRPRPRPGDHPRP | -0.00776 |
| RRIRMRPPRLPRPRPRPFCPPRP | 0.0248 |
| RRIRSRPPRLPRPRPRPSSIPRP | -0.379 |
| RRIRHRPPRLPRPRPRPIYPPRP | -0.158 |
| RRIRSRPPRLPRPRPRPFIQPRP | -0.0991 |
| RRIRERPPRLPRPRPRPYVHPRP | -0.00146 |
| RRIRVRPPRLPRPRPRPHIVPRP | -0.165 |
| RRIRYRPPRLPRPRPRPCASPRP | -0.12 |
| RRIRPRPPRLPRPRPRPNMWPRP | -0.084 |
| RRIRGRPPRLPRPRPRPNTCPRP | 0.103 |
| RRIRMRPPRLPRPRPRPDYIPRP | -0.354 |
| RRIRLRPPRLPRPRPRPWPKPRP | -0.0141 |
| RRIRLRPPRLPRPRPRPGRGPRP | 0.696 |
| RRIRERPPRLPRPRPRPECRPRP | 0.0354 |
| RRIRWRPPRLPRPRPRPEQRPRP | 0.248 |
| RRIRLRPPRLPRPRPRPRRFPRP | 0.142 |
| RRIRPRPPRLPRPRPRPYDDPRP | -0.0211 |
| RRIRGRPPRLPRPRPRPQWHPRP | 0.0863 |
| RRIRYRPPRLPRPRPRPDWIPRP | -0.589 |
| RRIRGRPPRLPRPRPRPEIGPRP | 1.92 |
| RRIRVRPPRLPRPRPRPWRMPRP | 0.077 |
| RRIRARPPRLPRPRPRPKWLPRP | 0.234 |
| RRIRNRPPRLPRPRPRPVAKPRP | -0.107 |
| RRIRKRPPRLPRPRPRPVMVPRP | 0.315 |
| RRIRNRPPRLPRPRPRPVKPPRP | 0.0644 |

| Sequence | shrunken log2 fold change |
| --- | --- |
| RRIRPRPPRLPRPRPRPIQNPRP | -0.11 |
| RRIRIRPPRLPRPRPRPAALPRP | -0.134 |
| RRIRNRPPRLPRPRPRPNKIPRP | -0.658 |
| RRIRARPPRLPRPRPRPTYSPRP | -0.204 |
| RRIRGRPPRLPRPRPRPLGYPRP | 0.885 |
| RRIRSRPPRLPRPRPRPQVPPRP | 0.299 |
| RRIRNRPPRLPRPRPRPCHWPRP | 0.065 |
| RRIRIRPPRLPRPRPRPKTRPRP | -0.117 |
| RRIRPRPPRLPRPRPRPSEAPRP | -0.0726 |
| RRIRIRPPRLPRPRPRPTPIPRP | 0.153 |
| RRIRHRPPRLPRPRPRPVFVPRP | -0.182 |
| RRIRNRPPRLPRPRPRPVDAPRP | 0.154 |
| RRIRVRPPRLPRPRPRPPRNPRP | 0.343 |
| RRIRLRPPRLPRPRPRPCLRPRP | -0.0817 |
| RRIRFRPPRLPRPRPRPKHEPRP | 0.286 |
| RRIRDRPPRLPRPRPRPKPKPRP | 0.254 |
| RRIRTRPPRLPRPRPRPRASPRP | 0.367 |
| RRIRKRPPRLPRPRPRPYDAPRP | -0.252 |
| RRIRYRPPRLPRPRPRPHFMPRP | -0.0918 |
| RRIRCRPPRLPRPRPRPTCGPRP | 0.111 |
| RRIRIRPPRLPRPRPRPGRFPRP | 0.138 |
| RRIRFRPPRLPRPRPRPMKAPRP | 0.035 |
| RRIRVRPPRLPRPRPRPQTHPRP | 0.01 |
| RRIRMRPPRLPRPRPRPQILPRP | -0.0502 |
| RRIRPRPPRLPRPRPRPHVEPRP | 0.107 |
